From patent publication US20250325622A1, “Autoimmune Disease Modulation Protocol” (priority 2024, published 2025)

Tested on: lupus anticoagulants
Assay: PTT-LA Screen, lupus patient case study
Format: in vivo, human
Conditions: coinciding with the first IV infusion, before the protocol; reference range <=40 sec
Method: On Jan. 5, 2023, the invention was administered to a person who was previously diagnosed in July 2019 with the autoimmune disease Lupus. This diagnosis was validated through a complete ANA Screen blood test panel conducted in July and subsequently in August of 2019 for a second confirmation. The patient was on standard therapies and medications typically prescribed for Lupus until December 2022, during which their symptoms progressively deteriorated. Of note, the patient voluntarily ceased all standard treatments for Lupus and other related auto-immune diseases one month prior to commencing the invention, under the supervision of their treating rheumatologist of the Arthritis & Rheumatic Disease Specialties center.
PTT-LA Screen: Tests for the presence of lupus anticoagulants, which are antibodies that can interfere with blood clotting and are commonly found in lupus patients.

Inflectra: intravenous (IV) infusion treatment, a monoclonal antibody used to treat a range of inflammatory autoimmune diseases
PTT-LA levels: significant spike
